Source: patent US20030082809A1 (University of California, published 2003)

Key:
Experiment in all cases: cell-based or functional assay
[1] = molecular target: GAD, GAL4-activation domain alone (UniProt P04386)
[2] = molecular target: PIF3:GAD fusion protein (PIF3-GAL4-activation-domain fusion) (Arabidopsis) (UniProt O80536)
[3] = molecular target: T1, PIF3:GAD fusion protein (PIF3-GAL4-activation-domain fusion) (Arabidopsis, UniProt O80536 1-524, limits assumed)
T1 sequence: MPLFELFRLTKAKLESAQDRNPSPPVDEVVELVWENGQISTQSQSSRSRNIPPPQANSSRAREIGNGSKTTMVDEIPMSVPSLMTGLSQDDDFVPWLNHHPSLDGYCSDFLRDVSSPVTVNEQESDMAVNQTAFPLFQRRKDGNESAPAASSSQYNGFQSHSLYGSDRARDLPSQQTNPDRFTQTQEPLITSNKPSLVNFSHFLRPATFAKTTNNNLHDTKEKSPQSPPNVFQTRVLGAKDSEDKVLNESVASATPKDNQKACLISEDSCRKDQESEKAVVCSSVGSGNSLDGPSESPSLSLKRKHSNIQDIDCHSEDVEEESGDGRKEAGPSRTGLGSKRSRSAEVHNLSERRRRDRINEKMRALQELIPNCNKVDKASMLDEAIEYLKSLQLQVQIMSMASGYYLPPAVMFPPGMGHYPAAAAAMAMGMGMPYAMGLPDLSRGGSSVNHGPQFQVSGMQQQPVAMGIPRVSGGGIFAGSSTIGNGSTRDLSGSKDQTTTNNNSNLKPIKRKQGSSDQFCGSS

GAD, GAL4-activation domain alone, sequence (P04386 768-881 limits assumed): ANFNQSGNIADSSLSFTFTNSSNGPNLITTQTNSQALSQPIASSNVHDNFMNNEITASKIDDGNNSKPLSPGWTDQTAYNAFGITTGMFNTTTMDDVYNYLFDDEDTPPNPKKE

“GBD, GAL4 DNA-binding domain alone (from UniProt P04386 1-147)” was tested, and the LacZ activity (M. U.), yeast two-hybrid liquid assay, Dark [1] was 0.1 M. U, the LacZ activity (M. U.), yeast two-hybrid liquid assay, Rp [1] was 0.2 M. U and the LacZ activity (M. U.), yeast two-hybrid liquid assay, Rp/FRp [1] was 0.2 M. U.

In the case of “phyB(NT):GBD fusion protein, Pr form (PCB chromophore, in darkness or after far-red light) (from UniProt P14713 1-621; P04386 1-147)”, the LacZ activity (M. U.), yeast two-hybrid liquid assay, Dark [2] is reported as 0.1 M. U and the LacZ activity (M. U.), yeast two-hybrid liquid assay, Rp/FRp (red pulse followed at once by far-red pulse) [2] is reported as 0.1 M. U.

B1: phyB(NT):GBD fusion protein, Pfr form (PCB chromophore, after red light) (other, UniProt P14713 1-621, looked up)
chain: MVSGVGGSGGGRGGGRGGEEEPSSSHTPNNRRGGEQAQSSGTKSLRPRSNTESMSKAIQQYTVDARLHAVFEQSGESGKSFDYSQSLKTTTYGSSVPEQQITAYLSRIQRGGYIQPFGCMIAVDESSFRIIGYSENAREMLGIMPQSVPTLEKPEILAMGTDVRSLFTSSSSILLERAFVAREITLLNPVWIHSKNTGKPFYAILHRIDVGVVIDLEPARTEDPALSIAGAVQSQKLAVRAISQLQALPGGDIKLLCDTVVESVRDLTGYDRVMVYKFHEDEHGEVVAESKRDDLEPYIGLHYPATDIPQASRFLFKQNRVRMIVDCNATPVLVVQDDRLTQSMCLVGSTLRAPHGCHSQYMANMGSIASLAMAVIINGNEDDGSNVASGRSSMRLWGLVVCHHTSSRCIPFPLRYACEFLMQAFGLQLNMELQLALQMSEKRVLRTQTLLCDMLLRDSPAGIVTQSPSIMDLVKCDGAAFLYHGKYYPLGVAPSEVQIKDVVEWLLANHADSTGLSTDSLGDAGYPGAAALGDAVCGMAVAYITKRDFLFWFRSHTAKEIKWGGAKHHPEDKDDGQRMHPRSSFQAFLEVVKSRSQPWETAEMDAIHSLQLILRDSFKESMKLLSSIEQACDICRLKKLKCSKEKPKCAKCLKNNWECRYSPKTKRSPLTRAHLTEVESRLERLEQLFLLIFPREDLDMILKMDSLQDIKALLTGLFVQDNVNKDAVTDRLASVETDMPLTLRQHRISATSSSEESSNKGQRQLTVS
modifications: phycocyanobilin (PCB) chromophore attached to the phytochrome moiety (residue not stated); Pfr conformer after red light
B1 was tested, and the “LacZ activity, fold induction 5 min after a 1 min saturating red-light pulse” value [3] was 2 fold, the “LacZ activity, fold induction 10 min after a 1 min saturating red-light pulse” value [3] was 4 fold and the “LacZ activity, fold induction 30 min after a 1 min saturating red-light pulse” value [3] was 50 fold. The “induction of LacZ expression above background by a single red-light pulse” value [3] was 1000 fold.
